Data: paper PMC10438374, “FAN1 removes triplet repeat extrusions via a PCNA- and RFC-dependent mechanism” (Proceedings of the National Academy of Sciences of the …, 2023)

Biological target: T1, MutLα (MLH1/PMS2 heterodimer), recombinant human (human, UniProt P40692 1-756; P54278 1-862)
T1 construct: MLH1 subunit of human MutLα; PMS2 subunit of human MutLα; Heterodimer; source: recombinant (details in SI Appendix)
Test: far-Western, overlay or dot blot; far-western analysis of FAN1 and MutLα (SI Appendix, Fig. S4E); which protein was spotted is not told in the main text
Conditions: both partners purified

B1: FAN1 (FANCD2 and FANCI-associated nuclease 1), recombinant full-length human (enzyme, UniProt Q9Y2M0 1-1017, looked up)
chain: MMSEGKPPDKKRPRRSLSISKNKKKASNSIISCFNNAPPAKLACPVCSKMVPRYDLNRHLDEMCANNDFVQVDPGQVGLINSNVSMVDLTSVTLEDVTPKKSPPPKTNLTPGQSDSAKREVKQKISPYFKSNDVVCKNQDELRNRSVKVICLGSLASKLSRKYVKAKKSIDKDEEFAGSSPQSSKSTVVKSLIDNSSEIEDEDQILENSSQKENVFKCDSLKEECIPEHMVRGSKIMEAESQKATRECEKSALTPGFSDNAIMLFSPDFTLRNTLKSTSEDSLVKQECIKEVVEKREACHCEEVKMTVASEAKIQLSDSEAKSHSSADDASAWSNIQEAPLQDDSCLNNDIPHSIPLEQGSSCNGPGQTTGHPYYLRSFLVVLKTVLENEDDMLLFDEQEKGIVTKFYQLSATGQKLYVRLFQRKLSWIKMTKLEYEEIALDLTPVIEELTNAGFLQTESELQELSEVLELLSAPELKSLAKTFHLVNPNGQKQQLVDAFLKLAKQRSVCTWGKNKPGIGAVILKRAKALAGQSVRICKGPRAVFSRILLLFSLTDSMEDEDAACGGQGQLSTVLLVNLGRMEFPSYTINRKTHIFQDRDDLIRYAAATHMLSDISSAMANGNWEEAKELAQCAKRDWNRLKNHPSLRCHEDLPLFLRCFTVGWIYTRILSRFVEILQRLHMYEEAVRELESLLSQRIYCPDSRGRWWDRLALNLHQHLKRLEPTIKCITEGLADPEVRTGHRLSLYQRAVRLRESPSCKKFKHLFQQLPEMAVQDVKHVTITGRLCPQRGMCKSVFVMEAGEAADPTTVLCSVEELALAHYRRSGFDQGIHGEGSTFSTLYGLLLWDIIFMDGIPDVFRNACQAFPLDLCTDSFFTSRRPALEARLQLIHDAPEESLRAWVAATWHEQEGRVASLVSWDRFTSLQQAQDLVSCLGGPVLSGVCRHLAADFRHCRGGLPDLVVWNSQSRHFKLVEVKGPNDRLSHKQMIWLAELQKLGAEVEVCHVVAVGAKSQSLS
notes: FAN1 (FANCD2 and FANCI-associated nuclease 1), human, full length; also called FAN1 nuclease; source: recombinant; prepared as per previously established procedures (details in SI Appendix)
- binding result: binds
